In IntAct's records for PubMed 17185412:

What was measured:
syt1_mouse Syt1 = syt1_mouse Syt1 (UniProt P46096)
syt2_mouse Syt2 = syt2_mouse Syt2 (UniProt P46097)

Substance	effect of a mutation on the interaction (syt1_mouse Syt1)	effect of a mutation on the interaction (syt2_mouse Syt2)
Botulinum neurotoxin type B (Clostridium botulinum) (from UniProt P10844) K1192E	decreasing interaction strength	
Botulinum neurotoxin type B (Clostridium botulinum) (from UniProt P10844) K1192M	decreasing interaction strength	
Botulinum neurotoxin type B (Clostridium botulinum) (from UniProt P10844) V1118D	decreasing interaction strength	decreasing interaction strength
Botulinum neurotoxin type B (Clostridium botulinum) (from UniProt P10844) W1262L	decreasing interaction strength	
Botulinum neurotoxin type B (Clostridium botulinum) (from UniProt P10844) Y1183R	decreasing interaction strength	decreasing interaction strength
